# Measurements as given in US20130289246A1.
# Where two headings read alike, the source gives them in different places.
# Assays:
# [1] = molecular target: recombinant soluble trimeric 2009 H1 HA (A/California/04/2009, wild type) (Influenza A virus A/California/04/2009 (H1N1)); test: ELISA, recombinant mAb
# [2] = molecular target: soluble 2004 H5 HA (Influenza A virus (H5N1, 2004)); test: ELISA, recombinant mAb
# [3] = molecular target: 1997 H6N1 HA (Influenza A virus (H6N1, 1997)); test: ELISA, recombinant mAb
# [4] = molecular target: soluble 1999 H1 HA (seasonal 1999 H1N1) (Influenza A virus (H1N1, 1999)); test: ELISA, recombinant mAb
# [5] = molecular target: 1997 H9N2 HA (Influenza A virus (H9N2, 1997)); test: ELISA, recombinant mAb
# [6] = molecular target: recombinant soluble 1957 H2 HA (A/Japan/305+/1957) (Influenza A virus A/Japan/305+/1957 (H2N2)); test: ELISA, recombinant mAb
# [7] = molecular target: recombinant soluble trimeric 2009 H1 HA (A/California/04/2009, wild type) (Influenza A virus A/California/04/2009 (H1N1)); test: ELISA, recombinant mAb; remark: listed apart in the source
# [8] = molecular target: soluble 2004 H5 HA (Influenza A virus (H5N1, 2004)); test: ELISA, recombinant mAb; remark: listed apart in the source
# [9] = molecular target: soluble 1999 H1 HA (seasonal 1999 H1N1) (Influenza A virus (H1N1, 1999)); test: ELISA, recombinant mAb; remark: listed apart in the source
# [10] = molecular target: recombinant soluble 1957 H2 HA (A/Japan/305+/1957) (Influenza A virus A/Japan/305+/1957 (H2N2)); test: ELISA, recombinant mAb; remark: listed apart in the source
# [11] = molecular target: recombinant soluble 1968 H3 HA (A/Aichi/2/1968) (Influenza A virus A/Aichi/2/1968 (H3N2)) (UniProt P03437); test: ELISA, supernate
# [12] = molecular target: recombinant soluble trimeric 2009 H1 HA (A/California/04/2009, wild type) (Influenza A virus A/California/04/2009 (H1N1)); test: ELISA, supernate; note: test concentration or dose not given here
# [13] = molecular target: recombinant soluble trimeric 1918 H1 HA (A/South Carolina/1/1918, wild type) (Influenza A virus A/South Carolina/1/1918 (H1N1)) (UniProt Q9WFX3); test: ELISA, supernate
# [14] = molecular target: soluble 2004 H5 HA (Influenza A virus (H5N1, 2004)); test: ELISA, supernate; note: test concentration or dose not given here
# [15] = molecular target: 1997 H6N1 HA (Influenza A virus (H6N1, 1997)); test: ELISA, supernate
# [16] = molecular target: soluble 1999 H1 HA (seasonal 1999 H1N1) (Influenza A virus (H1N1, 1999)); test: ELISA, supernate; note: test concentration or dose not given here
# [17] = molecular target: 1997 H9N2 HA (Influenza A virus (H9N2, 1997)); test: ELISA, supernate
# [18] = molecular target: recombinant soluble 1957 H2 HA (A/Japan/305+/1957) (Influenza A virus A/Japan/305+/1957 (H2N2)); test: ELISA, supernate; note: test concentration or dose not given here
# [19] = molecular target: recombinant soluble 1968 H3 HA (A/Aichi/2/1968) (Influenza A virus A/Aichi/2/1968 (H3N2)) (UniProt P03437); test: ELISA, supernate; remark: listed apart in the source
# [20] = molecular target: recombinant soluble trimeric 2009 H1 HA (A/California/04/2009, wild type) (Influenza A virus A/California/04/2009 (H1N1)); test: ELISA, supernate; remark: listed apart in the source; note: test concentration or dose not given here
# [21] = molecular target: recombinant soluble trimeric 1918 H1 HA (A/South Carolina/1/1918, wild type) (Influenza A virus A/South Carolina/1/1918 (H1N1)) (UniProt Q9WFX3); test: ELISA, supernate; remark: listed apart in the source
# [22] = molecular target: soluble 2004 H5 HA (Influenza A virus (H5N1, 2004)); test: ELISA, supernate; remark: listed apart in the source; note: test concentration or dose not given here
# [23] = molecular target: soluble 1999 H1 HA (seasonal 1999 H1N1) (Influenza A virus (H1N1, 1999)); test: ELISA, supernate; remark: listed apart in the source; note: test concentration or dose not given here
# [24] = molecular target: recombinant soluble 1957 H2 HA (A/Japan/305+/1957) (Influenza A virus A/Japan/305+/1957 (H2N2)); test: ELISA, supernate; remark: listed apart in the source; note: test concentration or dose not given here
Binder,OD [12] [OD],OD [14] [OD],OD [15] [OD],OD [16] [OD],OD [17] [OD],OD [18] [OD],OD [20] [OD],OD [22] [OD],OD [23] [OD],OD [24] [OD],further results
"mAb 3N6 (recombinant) (antibody, V domains shown) VH: QVQLQESGPGLVKPSETLSLTCSVSGGSINYYYWSWIRQPPGKGLECIGYISDTGRTYYNPSLRSRVTISVDTSKNQFSLNLTSMTAADTAVYYCARDPTGSRQKNAFDMWGQGTMVTVS VL: AIQMTQSPSSLSASVGDRVTITCRASQNIRSYLNWYQQKPGKAPNLLIYGTTSLESGVPSRFSGSGSGTDFTLTISSLQPEDFATYYCQQSYHTPQTFGQGTKVEIKR",,,,,,,,,,,OD [1]: 2.69 OD; OD [2]: 3.07 OD; OD [3]: 0.23 OD; OD [4]: 1.49 OD; OD [5]: 0.084 OD; OD [6]: 0.801 OD; OD [7]: 1.03 OD; OD [8]: 2.03 OD; OD [9]: 0.909 OD; OD [10]: 0.57 OD
"mAb 5I17 (antibody, V domains shown) VH: EVQLVESGGGVVQPGRSLRLSCAASGFSFSNYAMHWVRQAPGKGLEWVALISFDGSDKYYADSVKGRFTMSRDNSKNTLYLQMNSLRAEDTAVYYCARDEPYCGGDCFAFDVWGQGTMVTVS VL: DIQLTQSPSSLSASAGDRVSMTCRASQIISSSLNWYQQKPGKAPKLLIYAASNLQSGVPSRFSGSGSGTDFTLTISSLQPEDFATYYCQQSYSTPPELTFGGGTKVDIKR",0.566,1.17,0.11,1.19,1.98,1.38,0.668,1.55,1.93,0.85,OD [11]: 0.156 OD; OD [13]: 0.522 OD; OD [19]: 0.267 OD; OD [21]: 0.495 OD
"mAb 6J24 (antibody, V domains shown) VH: EVQLVESGGGLVQPGRSLRLSCVGSGFNFDGYAMQWVRQVPGKGLEWVSGISWHSDSTGYADSVRGRFTISRDNAKNSLYLQMDSLRPEDTAFYYCGKSIGHVGGSYRHPIDYWGQGTLVTVS VL: DIQLTQSPSSLSASVGDRVTITCRASQGITDYLAWYQQKPGTIPKLLIYAASTLQSGVPSRFSGGGYGTDFTLTISSLQPEDVATYYCQKYNSAPLTFGGGTKVEIKR",0.102,0.182,0.163,0.083,0.075,0.097,0.981,0.379,0.183,0.219,
